Laboratory results published in patent US20230002480A1.

Assays:
Experiment in all cases: cell-based or functional assay
[1] = molecular target: HIV-1 Env of pseudovirus 263-8 (HIV-1)
[2] = molecular target: HIV-1 Env of pseudovirus 211-9 (HIV-1)
[3] = molecular target: HIV-1 Env of pseudovirus X1193_c1 (HIV-1)
[4] = molecular target: HIV-1 Env of pseudovirus BJOX009000.02.4 (HIV-1)
[5] = molecular target: HIV-1 Env of pseudovirus 6480.v4.c25 (HIV-1)
[6] = molecular target: HIV-1 Env of pseudovirus Q259.d2.17 (HIV-1)
[7] = molecular target: HIV-1 Env of pseudovirus 191084 B7-19 (HIV-1)
[8] = molecular target: HIV-1 Env of pseudovirus HIV-16845-2.22 (HIV-1)
[9] = molecular target: HIV-1 Env of pseudovirus CNE58 (HIV-1)
[10] = molecular target: HIV-1 Env of pseudovirus Ce703010054_2A2 (HIV-1)
[11] = molecular target: HIV-1 Env of pseudovirus ZM109F.PB4 (HIV-1)
[12] = molecular target: HIV-1 Env of pseudovirus 0260.v5.c36 (HIV-1)
[13] = molecular target: HIV-1 Env of pseudovirus 6535.3 (HIV-1)
[14] = molecular target: HIV-1 Env of pseudovirus SC422661.8 (HIV-1)
[15] = molecular target: HIV-1 Env of pseudovirus C3347.c11 (HIV-1)
[16] = molecular target: HIV-1 Env of pseudovirus TRJO4551.58 (HIV-1)
[17] = molecular target: HIV-1 Env of pseudovirus 0815.v3.c3 (HIV-1)
[18] = molecular target: HIV-1 Env of pseudovirus T251-18 (HIV-1)
[19] = molecular target: HIV-1 Env of pseudovirus CNE5 (HIV-1)
[20] = molecular target: HIV-1 Env of pseudovirus X2131_C1_B5 (HIV-1)

B1: N49P22 (antibody, V domains shown)
V domain 1: HIQLLQSGPQVKKSGDTVRISCETSGYNFVDSRIHWVRQTPEKRLRWMGWINPLQGGVNYAPEFQGRIRMTRDTFIDTVYVDLSGLTPADTAYYYCARGIDGKSYPFHFWGHGTRVTVFS
V domain 2: RFALTQPASVSGSPGQTITITCAGGSVSWFHFPPGKTPRLIIYESSKRPSGVSPRFSGSQSGSTASLIISGLQSDDEGTYFCSILEFFGRGTLVTVLS
IC50 [1]: 1.83 µg/mL | IC80 [1]: 18.5 µg/mL | MPI [1]: 89 | IC50 [2]: > 50 µg/mL | IC80 [2]: > 50 µg/mL | MPI [2]: 18 | IC50 [3]: 3.49 µg/mL | IC80 [3]: 28.5 µg/mL | MPI [3]: 85 | IC50 [4]: 17.3 µg/mL | IC80 [4]: > 50 µg/mL | MPI [4]: 64 | IC50 [5]: 0.809 µg/mL | IC80 [5]: 32.1 µg/mL | MPI [5]: 86 | IC50 [6]: > 50 µg/mL | IC80 [6]: > 50 µg/mL | MPI [6]: 15 | IC50 [7]: 0.343 µg/mL | IC80 [7]: 1.64 µg/mL | MPI [7]: 98 | IC50 [8]: 4.6 µg/mL | IC80 [8]: 41.9 µg/mL | MPI [8]: 87 | IC50 [9]: 28.4 µg/mL | IC80 [9]: > 50 µg/mL | MPI [9]: 57 | IC50 [10]: > 50 µg/mL | IC80 [10]: > 50 µg/mL | MPI [10]: 0 | IC50 [11]: > 50 µg/mL | IC80 [11]: > 50 µg/mL | MPI [11]: 1 | IC50 [12]: 1.67 µg/mL | IC80 [12]: 14.4 µg/mL | MPI [12]: 93 | IC50 [13]: > 50 µg/mL | IC80 [13]: > 50 µg/mL | MPI [13]: 5 | IC50 [14]: 0.12 µg/mL | IC80 [14]: 0.544 µg/mL | MPI [14]: 100 | IC50 [15]: 1.18 µg/mL | IC80 [15]: 12.3 µg/mL | MPI [15]: 89 | IC50 [16]: > 50 µg/mL | IC80 [16]: > 50 µg/mL | MPI [16]: 28 | IC50 [17]: 0.161 µg/mL | IC80 [17]: 1.08 µg/mL | MPI [17]: 98 | IC50 [18]: 0.58 µg/mL | IC80 [18]: 3.09 µg/mL | MPI [18]: 99 | IC50 [19]: 0.281 µg/mL | IC80 [19]: 1.55 µg/mL | MPI [19]: 96 | IC50 [20]: > 50 µg/mL | IC80 [20]: > 50 µg/mL | MPI [20]: 44

B2: N49P23 (antibody, V domains shown)
VH: QVRLVQSGAGARKTGASMKLSCSTSGYTFTTHHGHFINWVRQARGQGLEWMGWMNPMTGQMNIEGKFQGRVTLTRDIYSDTAYMEMTRLTTGDTGTYYCARGDFGQNYPFHYWGQGSLVIVSS
VL: LSALTQPASVSGSPGQSVTISCSGTNRYLVSWYQQHPDKAPKLIIYDDNKRPSGISDRFSASRPDDTASLTISGLQTGDEATYWCASYERFGGGTRLTVLS
IC50 [1]: 0.012 µg/mL | IC80 [1]: 0.096 µg/mL | MPI [1]: 100 | IC50 [2]: > 50 µg/mL | IC80 [2]: > 50 µg/mL | MPI [2]: 14 | IC50 [3]: 0.008 µg/mL | IC80 [3]: 0.038 µg/mL | MPI [3]: 100 | IC50 [4]: > 50 µg/mL | IC80 [4]: > 50 µg/mL | MPI [4]: 8 | IC50 [5]: > 50 µg/mL | IC80 [5]: > 50 µg/mL | MPI [5]: 29 | IC50 [6]: 0.362 µg/mL | IC80 [6]: 7.79 µg/mL | MPI [6]: 91 | IC50 [7]: 0.013 µg/mL | IC80 [7]: 0.043 µg/mL | MPI [7]: 100 | IC50 [8]: > 50 µg/mL | IC80 [8]: > 50 µg/mL | MPI [8]: 20 | IC50 [9]: > 50 µg/mL | IC80 [9]: > 50 µg/mL | MPI [9]: 9 | IC50 [10]: > 50 µg/mL | IC80 [10]: > 50 µg/mL | MPI [10]: 35 | IC50 [11]: 0.039 µg/mL | IC80 [11]: 0.18 µg/mL | MPI [11]: 100 | IC50 [12]: 0.261 µg/mL | IC80 [12]: 0.919 µg/mL | MPI [12]: 100 | IC50 [13]: 0.127 µg/mL | IC80 [13]: 0.855 µg/mL | MPI [13]: 100 | IC50 [14]: 0.069 µg/mL | IC80 [14]: 0.245 µg/mL | MPI [14]: 100 | IC50 [15]: 0.007 µg/mL | IC80 [15]: 0.032 µg/mL | MPI [15]: 100 | IC50 [16]: 0.016 µg/mL | IC80 [16]: 0.068 µg/mL | MPI [16]: 100 | IC50 [17]: 0.004 µg/mL | IC80 [17]: 0.014 µg/mL | MPI [17]: 100 | IC50 [18]: > 50 µg/mL | IC80 [18]: > 50 µg/mL | MPI [18]: 18 | IC50 [19]: 0.058 µg/mL | IC80 [19]: 0.226 µg/mL | MPI [19]: 100 | IC50 [20]: 0.08 µg/mL | IC80 [20]: 0.28 µg/mL | MPI [20]: 100
